Target: Full-length human Flag-tagged p53 (native, unacetylated) (UniProt P04637)

With Full-length human histidine-tagged p300 the “acetylation of p53 by p300 in the presence of 3H-acetyl CoA (electrophoresis, fluorography)” value was “p300 efficiently acetylated p53”.
